Data: patent US7429646

Target: its ligand (ligand of TR2, not identified)
Test: cell-based or functional assay

allogeneic MLR-mediated proliferation of PBMC ([3H]-thymidine incorporation): < 53%
Substance: TR2-Fc fusion protein (TR2 extracellular domain fused to human IgG1 Fc, pcDNA3, NIH 3T3) (from UniProt Q92956 37-200)
